B1: ^111In-DTPA-PD-L1.3.1 (antibody, V domains shown)
VH: EVQLQQSGTELVKPGASVKLSCTTSGFNIQDTYMHWVKQRPEQGLEWIGWIDPANGNTKYDPKFQGKATIIADTSSNTAYLQLRGLTSEDTAVYYCARSGVSTAHFDYWGQGTTLTVSS
VL: QIVLSQSPAILSASPGEKVTMTCRASSSVSFMHWYQQKPGSSPKPWIYATSNLASGVPTRFSGSGSGTSYSLTLSRVEAEDAATYYCQQWSSYPRTFGGGTKLEIK
modifications: ITC-DTPA conjugated and chelating ^111In; residues and chain not stated
B2: PD-L1.3.1 antibody (murine monoclonal IgG1, unlabeled) (antibody, V domains shown)
VH: B1 VH
VL: B1 VL
notes: also called PD-L1.3.1 mAb; unlabeled PD-L1.3.1

Key:
[1] = biological target: T1, human PD-L1 (Programmed Cell Death 1 Ligand 1) (human, UniProt Q9NZQ7 19-290); experiment: Scatchard analysis on cells (MDA-MB-231 used for binding assays), 3-3000 pM ^111In-PD-L1.3.1, 4 h on ice, gamma counter; 111In-labeled antibody; Scatchard affinity on MDA-MB-231 cells
T1 construct: whole, on cells; Endogenous PD-L1 on breast cancer cell lines; also called CD274; PDCD1LG1
Procedure: (§1) Cells were cultured to confluency in six-well plates and were incubated for 4 h on ice with increasing concentrations ¹¹¹In-PD-L1.3.1 (3-3000 pM) in 1 ml RPMI1640 containing 0.5% BSA. Non-specific binding was determined by co-incubation with 100 nM PD-L1.3.1. After incubation, cells were washed with PBS and the cell-associated activity was measured in a shielded well-type gamma counter. The specific binding (total binding−nonspecific binding) was plotted against the bound/free ratio. Data were analyzed by linear regression to determine PD-L1 receptor density per cell and to determine the Kd of ¹¹¹In-PD-L1.3.1.

[2] = biological target: T1, human PD-L1 (Programmed Cell Death 1 …); experiment: saturation binding / Scatchard analysis on cells, 3-3000 pM ^111In-PD-L1.3.1 in 1 ml, 4 h on ice, non-specific binding (100 nM PD-L1.3.1) subtracted; the panel does not name the cell line (MDA-MB-231 cells were used in subsequent binding assays)
Procedure: as §1

[3] = biological target: T1, human PD-L1 (Programmed Cell Death 1 …); experiment: competition on MDA-MB-231 cells, 4 h on ice; unlabeled PD-L1.3.1 (1-1000 pM) against 20 pM ^111In-PD-L1.3.1 as competitor; gamma counter; unlabeled antibody; competition IC50 on MDA-MB-231 cells
Procedure: MDA-MB-231 cells were cultured to confluency in six-well plates. The 50% inhibitory concentration (IC₅₀) of PD-L1.3.1 blocking of ¹¹¹In-PD-L1.3.1 binding was determined by incubating the cells for 4 h on ice in 1 ml RPMI1640 0.5% BSA, containing 20 pM ¹¹¹In-PD-L1.3.1 (1 kBq) and increasing concentrations of unlabeled PD-L1.3.1 (1-1000 pM). After incubation, cells were washed with PBS and the cell-associated activity was measured in a gamma counter. The IC₅₀ was defined as the antibody concentration that was required to inhibit binding of the radio labeled antibody by 50%. IC₅₀ values were calculated using GraphPad Prism.

T1 sequence (Q9NZQ7 19-290): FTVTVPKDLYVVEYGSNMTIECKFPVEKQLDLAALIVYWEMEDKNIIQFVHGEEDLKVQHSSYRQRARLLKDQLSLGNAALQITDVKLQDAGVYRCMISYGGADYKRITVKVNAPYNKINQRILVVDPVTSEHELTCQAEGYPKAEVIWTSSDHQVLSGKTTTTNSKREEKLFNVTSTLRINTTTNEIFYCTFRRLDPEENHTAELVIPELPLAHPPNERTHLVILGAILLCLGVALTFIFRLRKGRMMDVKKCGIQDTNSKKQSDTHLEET

| Binder | Kd [1] [nM] | Kd [2] [nM] | IC50 [3] [nM] |
| --- | --- | --- | --- |
| B1 | 0.97 | 1 |  |
| B2 |  |  | 0.15 |
